The text below walks through data of publication PMC9428852, “The N-linker region of hERG1a upregulates hERG1b potassium channels” (The Journal of Biological Chemistry, 2022).

This assay addresses T1, 6xHis-hERG1a N1–354-FLAG (human, UniProt Q12809 1-354).
T1 construct: Plasmid made commercially (BioInnovatise); also called hERG1a N-terminal region; source: bacteria, M15 cells, purified (nickel column); not shown: His6, N-terminal, kept; FLAG, C-terminal, kept
Nature of the assay: pull-down; GST or GST fusion protein bound to glutathione beads, incubated with 6xHis fusion protein in buffer S (50 mM Tris pH 8, 150 mM NaCl, 25 mM imidazole, 0.25% Tween-20) with 0.5% CHAPS, overnight at 4 °C; washed; Western blot with anti-FLAG. Conditions: both partners purified. On the technique in general: Immunoblotting shows a protein as a band on a membrane.

T1 sequence (Q12809 1-354): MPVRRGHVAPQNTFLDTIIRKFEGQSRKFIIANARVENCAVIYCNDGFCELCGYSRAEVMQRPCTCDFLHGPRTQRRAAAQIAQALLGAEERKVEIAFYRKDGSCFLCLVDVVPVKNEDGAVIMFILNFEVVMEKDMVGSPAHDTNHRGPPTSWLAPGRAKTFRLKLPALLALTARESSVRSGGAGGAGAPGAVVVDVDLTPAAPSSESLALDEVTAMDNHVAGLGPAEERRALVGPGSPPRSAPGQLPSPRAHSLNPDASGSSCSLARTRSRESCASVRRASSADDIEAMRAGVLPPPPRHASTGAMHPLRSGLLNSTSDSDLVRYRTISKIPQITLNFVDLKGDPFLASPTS

B1: GST-hERG1b N1–56 (domain or fragment, human, UniProt Q12809-2 1-56, looked up)
chain: MAAPAGKASRTGALRPRAQKGRVRRAVRISSLVAQEVLSLGADVLPEYKLQAPRIH
notes: hERG1b (KCNH2 isoform 1b), human, N-terminal region residues 1-56; numbers count on: hERG1b; Plasmid made commercially (BioInnovatise); also called hERG1b N-terminal region; GST–hERG1b N-terminal region; not shown: GST, N-terminal, kept
In the case of B1, the binding result is “binds”.
